We go through 38 molecules from article PMC314469, “Protein Interaction Networks by Proteome Peptide Scanning” (PLoS Biology, 2004).

The labels stand for the following.
T1: amphyphisin SH3 (AMPH_HUMAN), P49418
T1 chain: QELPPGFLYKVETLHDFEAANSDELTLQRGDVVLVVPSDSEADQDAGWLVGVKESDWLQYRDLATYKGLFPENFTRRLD

The target of the first test is endophilin SH3 (SH3G2_HUMAN), Q99962. The test can be described thus: SPOT array.
As for YGPNIGRPRKNVIA [Q9HB39 190-203], the normalised SPOT signal, Boehringer light units (BLU); mean over the file's lines of this peptide turned out to be 166.
On the same count and under the same terms, the same measure for YQGGPPRPPMGMRP [O43670 455-469]: 614; for YGLTFRRPRGLFIT [Q16798 148-161]: 347.
Still for that read-out and setting: the same measure for YKVSPGRPPGSIKA [BAC04448 133-147]: 553.
In turn, YRRRFSRPSRARDI [Q03188 13-26] gave a normalised SPOT signal, Boehringer light units (BLU); mean over the file's lines of this peptide of 85.1.
On the same count and under the same terms, the same measure for YPARPRRPASTAGS [Q9BTV6 12-25]: 2010.
Same read-out and setting: the figure for YKVNLKRPSPFWAE [Q9NR62 73-86] is 42.2; for YHPPIFRPMKRITW [Q9GZT8 65-78] it is 293; for SQKAFKRPSDLRQH [Q9P2F9 337-350] it is 19.
Same read-out and setting: the same measure for SRLTLLRPEKDGTA [Q9H7S7 328-341]: 112.
YHPNPKRPGLDREQ [Q8WXI7 2968-2981]: the normalised SPOT signal, Boehringer light units (BLU); mean over the file's lines of this peptide was determined as 34.1.
For the molecule SRLTLLRPEKDGAA [Q9H7S7 16-29], the normalised SPOT signal, Boehringer light units (BLU); mean over the file's lines of this peptide is 71.4.
Still for that read-out and setting: the same measure for YPNKIKRPSLEDVT [Q13495 6-19]: 94.9; for YQHHPKRPSRQIHK [Q9HCL0 744-757]: 432.
YKPPLSRPLRPGPW [Q9H1B5 714-727] returned a normalised SPOT signal, Boehringer light units (BLU); mean over the file's lines of this peptide of 263.
As to YIFSLVRPARYQRV [P41440 139-152], the normalised SPOT signal, Boehringer light units (BLU); mean over the file's lines of this peptide stood at 1780.
Molecule YLQLPPRPPGTRAS [Q9H4M7 331-345] returned a normalised SPOT signal, Boehringer light units (BLU); mean over the file's lines of this peptide of 1230.
On to YRQQPKRPQKHIQK [Q9NPG4 759-772], for which the normalised SPOT signal, Boehringer light units (BLU); mean over the file's lines of this peptide was 183.
Same read-out and setting: the same measure for YSLLFRRPPPSPSP [Q9NZY4 11-24]: 175.
Same read-out and setting: the same measure for SQPGPAKPPAHRPS [Q9NPM2 248-262]: 176.
The same measure, in the same setting: the figure for YQRLPRRPGEPREV [Q9UHC9 721-734] is 143.
Molecule YTSKIFRPPRASHS [Q9Y397 160-173] registered a normalised SPOT signal, Boehringer light units (BLU); mean over the file's lines of this peptide of 325.
The same measure, in the same setting: the figure for YLTVLGRPDRPRDL [O94856 414-427] is 127.
Same read-out and setting: the same measure for ASLPPPRPQRPAET [Q9UFB1 199-212]: 81.6; for YYQIIKRPMDLSII [Q9BQQ4 1075-1088]: 85.7; for YHLPLRRPSPGFSW [O95428 295-308]: 1270.
Regarding YSSSLERPRKLRAV [O75042 916-929], the normalised SPOT signal, Boehringer light units (BLU); mean over the file's lines of this peptide was 137.
Still for that read-out and setting: the figure for SPPIPRRPAEPPWP [Q9HBU2 317-330] is 1380; for YRLPPTRPPASVSP [Q96LR7 16-30] it is 1510; for YQEYLKRPPESPPI [Q9BTL3 26-39] it is 42.7.
On the same count and under the same terms, the figure for YYLLPERPPYLDKY [Q9UD05 393-407] is 108; for YPQDLPRPLRSREF [O43734 232-245] it is 95.9.
YVDVIKRPLVKNPV [Q9P2Q0 703-716] returned a normalised SPOT signal, Boehringer light units (BLU); mean over the file's lines of this peptide of 29.7.
On the same count and under the same terms, the same measure for YRHGISRPLRPLSS [Q9UBX1 412-425]: 867; for YKVNLKRPSPFWND [Q96HE7 77-90]: 28.6.
Regarding YHPPIFRPMKRINL [Q9HC18 65-78], the normalised SPOT signal, Boehringer light units (BLU); mean over the file's lines of this peptide turned out to be 250.
The same measure, in the same setting: the same measure for YTVPPARPPPPLTK [O43308 48-62]: 9170.
On the same count and under the same terms, the figure for YLGKPSRPPHLLLE [Q9H5Q4 87-101] is 1770.

For another test, the target named is T1, amphyphisin SH3 (AMPH_HUMAN), P49418. Nature of the test: SPOT array.
The molecule YGPNIGRPRKNVIA [Q9HB39 190-203] showed a normalised SPOT signal, Boehringer light units (BLU); mean over the file's lines of this peptide of 134.
The same measure, in the same setting: the same measure for YQGGPPRPPMGMRP [O43670 455-469]: 87.9; for YGLTFRRPRGLFIT [Q16798 148-161]: 23.2.
On the same count and under the same terms, the same measure for YKVSPGRPPGSIKA [BAC04448 133-147]: 48.6.
In turn, YRRRFSRPSRARDI [Q03188 13-26] had a normalised SPOT signal, Boehringer light units (BLU); mean over the file's lines of this peptide of 469.
Still for that read-out and setting: the same measure for YPARPRRPASTAGS [Q9BTV6 12-25]: 4030.
The molecule YKVNLKRPSPFWAE [Q9NR62 73-86] registered a normalised SPOT signal, Boehringer light units (BLU); mean over the file's lines of this peptide of 30.9.
The same measure, in the same setting: the same measure for YHPPIFRPMKRITW [Q9GZT8 65-78]: 145; for SQKAFKRPSDLRQH [Q9P2F9 337-350]: 61.1.
Still for that read-out and setting: the same measure for SRLTLLRPEKDGTA [Q9H7S7 328-341]: 242; for YHPNPKRPGLDREQ [Q8WXI7 2968-2981]: 43.3.
The same measure, in the same setting: the figure for SRLTLLRPEKDGAA [Q9H7S7 16-29] is 297; for YPNKIKRPSLEDVT [Q13495 6-19] it is 24.9.
In turn, YQHHPKRPSRQIHK [Q9HCL0 744-757] gave a normalised SPOT signal, Boehringer light units (BLU); mean over the file's lines of this peptide of 3940.
On the same count and under the same terms, the same measure for YKPPLSRPLRPGPW [Q9H1B5 714-727]: 1210; for YIFSLVRPARYQRV [P41440 139-152]: 2220.
The molecule YLQLPPRPPGTRAS [Q9H4M7 331-345] came in with a normalised SPOT signal, Boehringer light units (BLU); mean over the file's lines of this peptide of 235.
Still for that read-out and setting: the figure for YRQQPKRPQKHIQK [Q9NPG4 759-772] is 103; for YSLLFRRPPPSPSP [Q9NZY4 11-24] it is 204; for SQPGPAKPPAHRPS [Q9NPM2 248-262] it is 39.8.
Same read-out and setting: the figure for YQRLPRRPGEPREV [Q9UHC9 721-734] is 116.
On the same count and under the same terms, the figure for YTSKIFRPPRASHS [Q9Y397 160-173] is 1790.
The molecule YLTVLGRPDRPRDL [O94856 414-427] came in with a normalised SPOT signal, Boehringer light units (BLU); mean over the file's lines of this peptide of 386.
As to ASLPPPRPQRPAET [Q9UFB1 199-212], the normalised SPOT signal, Boehringer light units (BLU); mean over the file's lines of this peptide was determined as 210.
On the same count and under the same terms, the same measure for YYQIIKRPMDLSII [Q9BQQ4 1075-1088]: 78.4; for YHLPLRRPSPGFSW [O95428 295-308]: 135; for YSSSLERPRKLRAV [O75042 916-929]: 78.3.
Still for that read-out and setting: the figure for SPPIPRRPAEPPWP [Q9HBU2 317-330] is 33.
The molecule YRLPPTRPPASVSP [Q96LR7 16-30] yielded a normalised SPOT signal, Boehringer light units (BLU); mean over the file's lines of this peptide of 150.
On the same count and under the same terms, the figure for YQEYLKRPPESPPI [Q9BTL3 26-39] is 34.1; for YYLLPERPPYLDKY [Q9UD05 393-407] it is 57.4; for YPQDLPRPLRSREF [O43734 232-245] it is 154.
Still for that read-out and setting: the figure for YVDVIKRPLVKNPV [Q9P2Q0 703-716] is 26.4; for YRHGISRPLRPLSS [Q9UBX1 412-425] it is 1500.
Consider YKVNLKRPSPFWND [Q96HE7 77-90], for which the normalised SPOT signal, Boehringer light units (BLU); mean over the file's lines of this peptide stood at 47.4.
The same measure, in the same setting: the figure for YHPPIFRPMKRINL [Q9HC18 65-78] is 164.
The molecule YTVPPARPPPPLTK [O43308 48-62] came in with a normalised SPOT signal, Boehringer light units (BLU); mean over the file's lines of this peptide of 211.
The same measure, in the same setting: the same measure for YLGKPSRPPHLLLE [Q9H5Q4 87-101]: 44.1.
